Bridge positions count the residues as written; N and C are the ends. Square brackets hold non-standard residues; d marks the D form. Ends that are not written are not given here. * marks the point of attachment. chloroacetamidine = chloroacetamidine warhead on ornithine δ-NH2, N=C(CCl)*; Ahp(2) = CCCCC[C@H](N)C(=O)O; Orn = NCCC[C@H](N)C(=O)O
How the values were obtained:
PAD4 = target: T1, PAD4 (Homo sapiens, UniProt Q9UM07); experiment: In vitro PAD4 inhibition assay, colorimetric analysis with COLDER solution, substrate BAEE; format: biochemical; settings: peptide 0 μM to 50 μM, PAD4 0.2 μM, BAEE 10 mM; for PAD4 inhibition, dose dependence / PAD4 inhibitory activity compared with the existing PAD4 inhibitor: initial data
T1 construct: purchased Modiquest Research MQ 16.206-10
Protocol: Human PAD4 was purchased from Modiquest Research (catalog no. MQ 16.206-10). Human PAD4 is a protein having NCBI accession no. CCDS180.1, a molecular weight of 74.08 kDa, and 663 amino acids.
PAD4 inhibition assay was performed using various concentrations of VB peptides in a reaction buffer containing 100 mM HEPES (pH 7.6) and 50 mM NaCl.
Before reaction was initiated by adding BAEE (final concentration: 10 mM), the above reaction mixture was incubated with PAD4 (0.2 μM) (in the presence of 5 mM CaCl2) at 37° C. for 15 minutes. After reaction for 30 minutes, the reaction was terminated by flash freezing in liquid nitrogen. For color development, 200 μL of a freshly prepared COLDER solution (2.25 M H3PO4, 4.5 M H2SO4, 1.5 mM NH4Fe(SO4), 20 mM diacetyl monoxime, and 1.5 mM thiosemicarbazide) was added to each of the reaction terminated solutions. The resulting mixture was vortexed to ensure complete mixing and then, incubated at 95° C. for 30 minutes (Firestein, G. S., 2003, Nature, 423(6937), 356-61; Jones, J. E., et al., ACS chemical biology, 7(1), 160-5). The absorbance at 540 nm was measured. Compared with a standard curve of Cit, the concentration of Cit produced during the reaction was determined.

HeLa cells = experiment: Intracellular introduction of fluorescently labeled peptides into living HeLa cells, confocal microscope; format: cell-based; settings: 37° C., 60 minutes
Protocol: HeLa cells proliferated on a 90-mm plate until they reached sub-confluence and Trypsin/EDTA were treated at 37° C. for […] to release the cells from the plate. A culture dish (Iwaki) having a 35-mm glass bottom was seeded with 1×10^4 cells. […] The latter ones were used for confirming cell integrity. The intracellular distribution of the fluorescently labeled peptide was analyzed using a Leica TCS SP2 microscope equipped with an N PLAN 40× objective lens, without washing and immobilization. The HeLa cells were incubated with the fluorescently labeled peptides, at 37° C. for 60 minutes. […], they were observed under a confocal fluorescence microscope. All the assays were performed using a small dish with a glass bottom so that not a sample having the cells mounted thereon but a sample in a buffer was observed. DRAQ7 (3 μM) is a far-red fluorescent dye and it dyes only the nuclei of permeable dead cells. When the peptides are incubated, this DRAQ7 is added to find whether the cells are alive or not.

T1 sequence (Q9UM07 whole entry): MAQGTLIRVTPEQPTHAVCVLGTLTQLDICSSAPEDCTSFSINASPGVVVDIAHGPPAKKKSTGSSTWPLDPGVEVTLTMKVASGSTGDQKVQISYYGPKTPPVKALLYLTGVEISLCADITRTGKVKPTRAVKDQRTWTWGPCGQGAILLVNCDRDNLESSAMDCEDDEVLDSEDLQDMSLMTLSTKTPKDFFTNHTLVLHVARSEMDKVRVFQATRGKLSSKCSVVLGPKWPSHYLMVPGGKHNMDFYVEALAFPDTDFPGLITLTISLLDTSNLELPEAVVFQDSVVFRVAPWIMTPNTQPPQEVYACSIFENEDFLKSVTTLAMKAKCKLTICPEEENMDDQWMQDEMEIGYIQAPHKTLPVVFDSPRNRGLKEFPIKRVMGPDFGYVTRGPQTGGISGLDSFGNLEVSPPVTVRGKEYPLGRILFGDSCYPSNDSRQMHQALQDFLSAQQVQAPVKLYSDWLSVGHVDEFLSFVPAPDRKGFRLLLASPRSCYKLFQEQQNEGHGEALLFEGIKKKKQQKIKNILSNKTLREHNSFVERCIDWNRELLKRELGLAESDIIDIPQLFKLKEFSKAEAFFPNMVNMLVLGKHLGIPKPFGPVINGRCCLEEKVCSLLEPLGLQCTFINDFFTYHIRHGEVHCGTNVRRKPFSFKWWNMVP

Row | Substance | PAD4 inhibitory ability relative to Cl-amidine and VB1C12 peptide (PAD4) [times] | PAD4 inhibition, dose dependence (PAD4) | PAD4 inhibitory activity compared with the existing PAD4 inhibitor (PAD4) | concentration necessary for incorporation in HeLa cells (HeLa cells)
1 | VB1C12-Cl-amidine analog: VB1C12 peptide with a haloacetamidine warhead introduced by modifying the Arg residue (ornithine δNH2 chloroacetamidine) (Ac-[dF]NA[Ahp(2)]YPY[Orn](chloroacetamidine)PP[Ahp(2)]TSC; bridge N-14; not fully specified (C-terminus, bridges)) | 2.7 |  |  | 
2 | ^ClAc-D-F-D-A-Ahep-Y-P-F-R-P-P-Ahep-A-H-C (Ac-[dF]DA[Ahp(2)]YPFRPP[Ahp(2)]AHC; bridge N-14; not fully specified (C-terminus, bridges); printed as ClAc-D-F-D-A-Ahep-Y-P-F-R-P-P-Ahep-A-H-C) [VB1C20] |  | dose-dependently inhibit PAD4 | not stronger than that of the existing PAD4 inhibitor | at least 10 μM
3 | ^ClAc-D-F-N-A-Ahep-Y-P-Y-R-P-P-Ahep-T-S-C ({CH2CO}-[dF]NA[Ahp(2)]YPYRPP[Ahp(2)]TSC-NH2; thioether N-14; SMILES CCCCC[C@@H]1NC(=O)[C@H](C)NC(=O)[C@H](CC(N)=O)NC(=O)[C@@H](Cc2ccccc2)NC(=O)CSC[C@@H](C(N)=O)NC(=O)[C@H](CO)NC(=O)[C@H]([C@@H](C)O)NC(=O)[C@H](CCCCC)NC(=O)[C@@H]2CCCN2C(=O)[C@@H]2CCCN2C(=O)[C@H](CCCNC(=N)N)NC(=O)[C@H](Cc2ccc(O)cc2)NC(=O)[C@@H]2CCCN2C(=O)[C@H](Cc2ccc(O)cc2)NC1=O) [VB1C12] |  | dose-dependently inhibit PAD4 | not stronger than that of the existing PAD4 inhibitor | 

Reference: patent US10234460B2, “Macrocyclic peptide, method for producing same, and screening method using macrocyclic peptide library” (The University of Tokyo, priority 2013, dated 2019)
